Assay results taken from patent US20060105403A1 (published 2006).

B1: GST-BRCT B (GST fusion with the second BRCT module of murine Brca1 alone) (other)
chain: REKLFKGLQVYCCEPFTNMPKDELERMLQLCGASVVKELPSLTHDTGAHLVVIVQPSAWTEDSNCPDIGQLCKARLVMWDWVLDSLSSYRCRGLDAYLVQNITCDSSEPQDSND
notes: also called BRCT B module alone; pGEX-BRCT B product; not shown: GST carrier and vector linker of pGEX-4T-1 at the N end
B2: GST-BRCT M (GST-BRCT of murine Brca1 with the non-sense mutation W1777X) (other)
chain: TSSEERADRDISMVVSGLTPKEVMTVQKFAEKYRLTLTDAITEETTHVIIKTDAEFVCERTLKYFLGIAGGKWIVSYSWVVRSIQERRLLNVHEFEVKGDVVTGRNHQGPRRSRESREKLFKGLQVYCCEPFTNMPKDELERMLQLCGASVVKELPSLTHDTGAHLVVIVQPSAWTEDSNCPDIGQLCKARLVM
notes: also called mutated tandem; pGEX-BRCT M product; not shown: GST carrier and vector linker of pGEX-4T-1 at the N end
B3: GST-BRCT (GST fusion protein containing amino acids 1583 to 1812 of murine Brca1) (other)
chain: TSSEERADRDISMVVSGLTPKEVMTVQKFAEKYRLTLTDAITEETTHVIIKTDAEFVCERTLKYFLGIAGGKWIVSYSWVVRSIQERRLLNVHEFEVKGDVVTGRNHQGPRRSRESREKLFKGLQVYCCEPFTNMPKDELERMLQLCGASVVKELPSLTHDTGAHLVVIVQPSAWTEDSNCPDIGQLCKARLVMWDWVLDSLSSYRCRGLDAYLVQNITCDSSEPQDSND
notes: Made in E. coli and held on glutathione-Sepharose beads; also called murine BRCT tandem; BRCT tandem of Brca1; not shown: glutathione S-transferase (GST) encoded by pGEX-4T-1 (Amersham Pharmacia Biotech)
B4: GST-BRCTh (GST fusion with the human form of the BRCT tandem of BRCA1) (other)
chain: TASTERVNKRMSMVVSGLTPEEFMLVYKFARKHHITLTNLITEETTHVVMKTDAEFVCERTLKYFLGIAGGKWVVSYFWVTQSIKERKMLNEHDFEVRGDVVNGRNHQGPKRARESQDRKIFRGLEICCYGPFTNMPTDQLEWMVQLCGASVVKELSSFTLGTGVHPIVVVQPDAWTEDNGFHAIGQMCEAPVVTREWVLDSVALYQCQELDTYLIPQIPHSHY
notes: also called GST-human BRCT fusion protein; human BRCT tandem; not shown: glutathione S-transferase (GST) encoded by the pGEX vector
B5: GST-BRCT L (GST fusion containing residues 1512-1812 of murine Brca1) (other)
chain: EGTPYLGSGISLFSSRDPESESPKEPAHIGTTPASTSALKIPQGQVAFRSAAAAGADKAVVGIVSKIKPELTSSEERADRDISMVVSGLTPKEVMTVQKFAEKYRLTLTDAITEETTHVIIKTDAEFVCERTLKYFLGIAGGKWIVSYSWVVRSIQERRLLNVHEFEVKGDVVTGRNHQGPRRSRESREKLFKGLQVYCCEPFTNMPKDELERMLQLCGASVVKELPSLTHDTGAHLVVIVQPSAWTEDSNCPDIGQLCKARLVMWDWVLDSLSSYRCRGLDAYLVQNITCDSSEPQDSND
notes: also called longer form of the murine BRCT domain; pGEX-BRCT L product; not shown: glutathione S-transferase (GST) encoded by pGEX-4T-1
B6: GST-Brca1 N (GST fusion containing the 220 N-terminal residues of murine Brca1) (other)
chain: MDLSAVQIQEVQNVLHAMQKILECPICLELIKEPVSTKCDHIFCKFCMLKLLNQKKGPSQCPLCKNEITKRSLQGSTRFSQLAEELLRIMAAFELDTGMQLTNGFSFSKKRNNSCERLNEEASIIQSVGYRNRVRRLPQVEPGNATLKDSLGVQLSNLGIVRSVKKNRQTQPRKKSVYIELDSDSSEETVTKPGDCSVRDQELLQTAPQEAGDEGKLHSA
notes: also called GST fusion protein expressing the 220 amino-terminal residues of the murine Brca1 protein; not shown: glutathione S-transferase (GST); the vector for this construct is not described
B7: GST-BRCT A (GST fusion with the first BRCT module of murine Brca1 alone) (other)
chain: TSSEERADRDISMVVSGLTPKEVMTVQKFAEKYRLTLTDAITEETTHVIIKTDAEFVCERTLKYFLGIAGGKWIVSYSWVVRSIQERRLLNVHEFEVKGDVVTGRNHQGPRRSRESREKLFKG
notes: It uses the same forward primer as GST-BRCT, so it probably starts at residue 1583; also called BRCT A module alone; pGEX-BRCT A product; not shown: GST carrier and vector linker of pGEX-4T-1 at the N end

Legend:
[1] = molecular target: T1, murine ACC-α (acetyl-Coenzyme-A carboxylase, α form), endogenous protein of murine cell lysates (murine, UniProt Q5SWU9 1-2345); assay: GST co-sedimentation, Western blot with streptavidin-peroxidase
Experimental: (§1) The proteins for fusion with GST were synthesised in Escherichia coli, strain JM 109 (Promega) transformed with pGEX-4T-1, pGEX-BRCT, pGEX-BRCT A, pGEX-BRCT B, pGEX-BRCT L, pGEX-BRCT M or pGEX-BRCTh as well as the mutated forms of BRCTh (A1708E, P1749R, M1775R, R1835X and Y1853X). They were purified by affinity chromatography on Glutathione-Sepharose. The test of binding by co-sedimentation was carried out in vitro by incubating cellular lysates in the presence of non-recombinant GST proteins or GST fusion proteins and Glutathione-Sepharose beads. 10 μg of GST or fusion GST were used in each binding test. The protein complexes were carefully washed (50 mM Tris HCl pH 7.6, 100 mM KCl, 0.05% Tween 20, 1 mM DTT, 0.2 mM PMSF) to eliminate the non-specific protein interactions and released by heating at 100° C. in loading buffer 5× SDS-PAGE and 100 mM DTT. The proteins were analysed by SDS-PAGE and visualised by autoradiography, staining with silver (Bio-Rad SilverStain) or staining with Coomassie blue according to the nature of the lysate used
In order to map the domain of interaction of ACC-α on the BRCT tandem of Brca1, co-sedimentation tests with six distinct fusion proteins were carried out. The protein complexes of co-sedimentation were resolved by SDS-PAGE and visualised by Western Blot. The ACC protein containing the biotin was detected using peroxidase coupled with streptavidin, and as streptavidin has a high affinity for biotin it is therefore a very sensitive probe for detecting ACC-α (Witters, L. A. et al, 1994). […] However, the fragment GST-BRCT A which lacks the sequences of the domain B of BRCT is incapable of combining with ACC-α.

[2] = molecular target: T1, murine ACC-α (acetyl-Coenzyme-A …); assay: GST co-sedimentation with the mutated tandem
Experimental: as §1
Numerous familial mutations have been found in the carboxy-terminal segment of BRCA1. One of these, R1835X, localised in the distal domain of BRCT, introduces a non-sense codon which suppresses the last 29 amino acids of Brca1 and thus breaks the second BRCT domain. […]

[3] = molecular target: T1, murine ACC-α (acetyl-Coenzyme-A …); assay: GST co-sedimentation in a lysate of murine fibroblasts
Excerpt: The inventors have shown that the tandem of the two BRCT domains was necessary and sufficient for the formation of this complex. Moreover, the inventors have shown that the formation of this complex was conserved in the human cells, using a GST-human BRCT fusion protein in co-sedimentation experiments similar to those cited above.
as §1

[4] = molecular target: T1, murine ACC-α (acetyl-Coenzyme-A …); assay: GST co-sedimentation on NIH3T3 lysate

Binder	binding result [1]	further results
B1	no binding (tested: 10 µg of fusion GST per binding test)	
B2		binding result [2]: no binding (tested: 10 µg of fusion GST per binding test)
B3		binding result [3]: binds
B4		binding result [4]: binds
B5	binds	
B6	no binding (tested: 10 µg of fusion GST per binding test)	
B7	no binding (tested: 10 µg of fusion GST per binding test)	
